The chains are these.
B1: C-terminally ypet-tagged full-length talin WT [mouse] / paxillin (endogenous, fibroblasts) [mouse (endogenous in talin^1/2dko fibroblasts)] (parent complex)
chain 1: MVALSLKISIGNVVKTMQFEPSTMVYDACRMIRERIPEALAGPPNDFGLFLSDDDPKKGIWLEAGKALDYYMLRNGDTMEYRKKQRPLKIRMLDGTVKTIMVDDSKTVTDMLMTICARIGITNHDEYSLVRELMEEKKDEGTGTLRKDKTLLRDEKKMEKLKQKLHTDDELNWLDHGRTLREQGVEEHETLLLRRKFFYSDQNVDSRDPVQLNLLYVQARDDILNGSHPVSFDKACEFAGFQCQIQFGPHNEQKHKAGFLDLKDFLPKEYVKQKGERKIFQAHKNCGQMSEIEAKVRYVKLARSLKTYGVSFFLVKEKMKGKNKLVPRLLGITKECVMRVDEKTKEVIQEWSLTNIKRWAASPKSFTLDFGDYQDGYYSVQTTEGEQIAQLIAGYIDIILKKKKSKDHFGLEGDEESTMLEDSVSPKKSTVLQQQYNRVGKVEHGSVALPAIMRSGASGPENFQVGSMPPAQQQITSGQMHRGHMPPLTSAQQALTGTINSSMQAVQAAQATLDDFETLPPLGQDAASKAWRKNKMDESKHEIHSQVDAITAGTASVVNLTAGDPAETDYTAVGCAVTTISSNLTEMSRGVKLLAALLEDEGGNGRPLLQAAKGLAGAVSELLRSAQPASAEPRQNLLQAAGNVGQASGELLQQIGESDTDPHFQDVLMQLAKAVASAAAALVLKAKSVAQRTEDSGLQTQVIAAATQCALSTSQLVACTKVVAPTISSPVCQEQLVEAGRLVAKAVEGCVSASQAATEDGQLLRGVGAAATAVTQALNELLQHVKAHATGAGPAGRYDQATDTILTVTENIFSSMGDAGEMVRQARILAQATSDLVNAIKADAEGESDLENSRKLLSAAKILADATAKMVEAAKGAAAHPDSEEQQQRLREAAEGLRMATNAAAQNAIKKKLVQRLEHAAKQAAASATQTIAAAQHAASAPKASAGPQPLLVQSCKAVAEQIPLLVQGVRGSQAQPDSPSAQLALIAASQSFLQPGGKMVAAAKASVPTIQDQASAMQLSQCAKNLGTALAELRTAAQKAQEACGPLEMDSALSVVQNLEKDLQEIKAAARDGKLKPLPGETMEKCTQDLGNSTKAVSSAIAKLLGEIAQGNENYAGIAARDVAGGLRSLAQAARGVAALTSDPAVQAIVLDTASDVLDKASSLIEEAKKASGHPGDPESQQRLAQVAKAVTQALNRCVSCLPGQRDVDNALRAVGDASKRLLSDSLPPSTGTFQEAQSRLNEAAAGLNQAATELVQASRGTPQDLARASGRFGQDFSTFLEAGVEMAGQAPSQEDRAQVVSNLKGISMSSSKLLLAAKALSTDPASPNLKSQLAAAARAVTDSINQLITMCTQQAPGQKECDNALRQLETVRELLENPVQPINDMSYFGCLDSVMENSKVLGEAMTGISQNAKNGNLPEFGDAIATASKALCGFTEAAAQAAYLVGVSDPNSQAGQQGLVEPTQFARANQAIQMACQSLGEPGCTQAQVLSAATIVAKHTSALCNSCRLASARTANPTAKRQFVQSAKEVANSTANLVKTIKALDGDFTEENRAQCRAATAPLLEAVDNLSAFASNPEFSSVPAQISPEGRAAMEPIVISAKTMLESAGGLIQTARALAVNPRDPPRWSVLAGHSRTVSDSIKKLITSMRDKAPGQLECETAIAALNSCLRDLDQASLAAVSQQLAPREGISQEALHTQMLTAVQEISHLIEPLASAARAEASQLGHKVSQMAQYFEPLTLAAVGAASKTLSHPQQMALLDQTKTLAESALQLLYTAKEAGGNPKQAAHTQEALEEAVQMMTEAVEDLTTTLNEAASAAGVVGGMVDSITQAINQLDEGPMGDPEGSFVDYQTTMVRTAKAIAVTVQEMVTKSNTSPEELGPLANQLTSDYGRLASQAKPAAVAAENEEIGAHIKHRVQELGHGCSALVTKAGALQCSPSDVYTKKELIECARRVSEKVSHVLAALQAGNRGTQACITAASAVSGIIADLDTTIMFATAGTLNREGAETFADHREGILKTAKVLVEDTKVLVQNAAGSQEKLAQAAQSSVATITRLADVVKLGAASLGAEDPETQVVLINAVKDVAKALGDLISATKAAAGKVGDDPAVWQLKNSAKVMVTNVTSLLKTVKAVEDEATKGTRALEATTEHIRQELAVFCSPEPPAKTSTPEDFIRMTKGITMATAKAVAAGNSCRQEDVIATANLSRRAIADMLRACKEAAFHPEVAPDVRLRALHYGRECANGYLELLDHVLLTLQKPNPDLKQQLTGHSKRVAGSVTELIQAAEAMKGTEWVDPEDPTVIAENELLGAAAAIEAAAKKLEQLKPRAKPKEADESLNFEEQILEAAKSIAAATSALVKAASAAQRELVAQGKVGAIPANALDDGQWSQGLISAARMVAAATNNLCEAANAAVQGHASQEKLISSAKQVAASTAQLLVACKVKADQDSEAMKRLQAAGNAVKRASDNLVKAAQKAAAFEDQENETVVVKEKMVGGIAQIIAAQEEMLRKERELEEARKKLAQIRQQQYKFLPSELRDEH
chain 2: not shown

In this assay the parent is B1. Put plainly: anti-GFP immunoprecipitation, western blot quantification; talin1/2dKO fibroblasts, N = 3; parent: 1; read off a plot. For orientation: A western blot detects proteins with antibodies after separation by electrophoresis.
For the variant chain 1 T2126E, chain 1 K2133E, the ratio to parent is around 0.69. Under chain 1 A680E, chain 1 K687E, chain 1 T2126E, chain 1 K2133E stands around 0.28. The result for chain 1 A680E, chain 1 K687E reads around 0.44.

Source of the values: paper PMC9054839 (2022).
